Test results taken from patent publication US12264201B2, “Bispecific antibody targeting IL-1R1 and NLPR3” (University of Ulster, priority 2018, dated 2025).

How the values were obtained:
[1] = test system: THP1 cells; experiment: IL-1β release from LPS/ATP-stimulated differentiated THP1 cells (ELISA); type: cell-based; settings: PMA-differentiated THP1; LPS 1 μg/ml 3 h, Ab 30 min (0.0025-2.5 ng/ml or 1 nM), ATP 5 mM 1 h; supernatant ELISA; FIG. 33
Protocol: THP1 cells, for FIGS. 33a and b, were cultured in 96-well plates at 100,000 cells/200 μl complete media. PMA (100 μg/ml for 72 hours) was used to differentiate THP-1 cells into macrophages. Following 24 hours of rest, differentiated THP1 cells were stimulated with LPS (1 μg/ml) for 3 hours, treated with MCC950 (1 μM) or the IL-1R1/NLRP3 Ab in a dose dependent fashion from 0.0025 ng/ml to 2.5 ng/ml for FIG. 33a or with IL-1R1/NLRP3 Ab (1 nM) for FIG. 33b or with IgG control antibody for 30 minutes, followed by ATP (5 mM) for 1 hour. IL-1β release was measured in the supernatant by ELISA.

[2] = test system: THP1 cells; experiment: Caspase-1 activation in THP1 cells (FAM-FLICA staining, confocal); type: cell-based
Protocol: THP1 cells, for FIG. 34, were cultured in 96-well plates at 100,000cells/200 ul complete media. PMA (100 ug/ml for 72 hours) was used to differentiated THP-1 cells into macrophages. Following 24 hours of rest, differentiated THP1 cells were stimulated with LPS (1 ug/ml) for 3 hours, treated with the IL-1R1/NLRP3 Ab (1 μg/ml) for 30 minutes, followed by ATP (5 mM) for 1 hour. Caspase-1 activation was assessed by staining cells with a non-cytotoxic Fluorescent Labelled Inhibitor of Caspase-1 (FAM-FLICA) and DAPI (nuclear stain). Cells were treated with LPS alone (negative control), LPS+ATP (positive control), mouse IgG2a (1 ug/ml, Ab control), or IL-1r/NLRP3 bi-specific Ab (1 ug/ml, experimental). Representative confocal images are shown for each group. Green=active caspae-1 and blue=Dapi/nuclear stain.
(§1) Internalization of Inflamab—see FIG. 35. THP1 cells, for FIG. 35, were cultured in 96-well plates at 100,000cells/200 ul complete media. Differentiation of THP1 cells was induced by PMA (100 ug/ml for 72 hours). Following 24 hours of rest, differentiated THP1 cells were stimulated with LPS (1 ug/ml) for 3 hours, treated with a pHrodo red labelled IL-1r/NLRP3 Ab (1 ug/ml) for 30 minutes, followed by ATP (5 mM) for 1 hour. The internalization of the Ab was tracked using a pHrodo red labelled bi-specific Ab that only fluoresces when internalized.

[3] = test system: THP1 cells; experiment: Internalization of pHrodo red labelled bi-specific Ab in THP1 cells; type: cell-based; settings: pHrodo red labelled Ab 1 ug/ml 30 min; differentiated THP1, LPS then ATP; confocal; FIG. 35A
Protocol: as §1

[4] = test system: Bone Marrow Derived Macrophages (BMDMs); experiment: Inflammasome activation assay in bone marrow derived macrophages (cytokine ELISA); type: cell-based, C57BL/6 mice; settings: murine BMDMs, FIG. 36
Protocol: Bone marrow cells were isolated from the tibias and femurs of C57BL/6 mice. To obtain bone marrow-derived dendritic cells (BMDCs), cells were cultured for 7 days at 37° C. and 5% CO2 in Iscove's modified Dulbecco's medium (IMDM) supplemented with 8% fetal calf serum (FCS), 1% penicillin/streptomycin (GE Healthcare Life Sciences, Marlborough, MA, USA), 1% glutamax (Thermo Fisher Scientific, Waltham, MA, USA) and 20 μM β-mercaptoethanol (Sigma-Aldrich, St. Louis, MO, USA) in the presence of 20 ng/mL gm-CSF (Preprotech, Rocky Hill, NJ, USA). To obtain bone marrow-derived macrophages (BMDMs), cells were cultured for 7 days in Roswell Park Memorial Institute medium (RPMI) supplemented with 10% FCS, 100 U/mL penicillin/streptomycin, 0.1 mM nonessential amino acids, 1% pyruvate and 2 mM L-glutamine (Thermo Fisher Scientific) in the presence of 20 ng/mL m-CSF (eBioscience)
For in vitro stimulation, 0.1×10^6 cells per well were added to 96-well flat-bottom plates (Greiner Bio-One, Kremsmunster, Austria). Cells were first primed with LPS (50 ng/mL) for 2 hours, after which cholesterol crystals (2 mg/mL) were added in the presence or absence of MCC950 (1 μM, Adipogen, San Diego, US) for an additional 4 hours. […]
InflaMab inhibits IL-1beta secretion in BMDMs—see FIG. 36. […] IL-1β release was measured in the supernatant by ELISA.

[5] = test system: apoE−/− mice; experiment: In vivo LPS challenge, serum IL-1β and TNF-α by ELISA; settings: LPS 50 μg/kg i.v., FIG. 37
Protocol: Female apoE−/− mice were fed a Western-type diet containing 0.25% cholesterol and 15% cacao butter (SDS, Sussex, UK) starting 1 week prior to treatment and throughout the experiment. Diet and water were provided ad libitum. After 1 week of diet feeding, mice were injected intraperitoneally with PBS or InflaMab (100 μg or 200 μg) administrated on day 10 and day 14. After 2 weeks of diet and a 1-week treatment mice were challenged intravenously with LPS (50 μg/kg, Salmonella minnesota R595, List Biological Laboratories Inc.) and blood was collected after 0.5, 1, 2 and 4 hours. After 4 hours mice were sacrificed and serum levels of IL-1β and TNF-α were measured by ELISA.
IL-1beta, but not TNFalpha, is inhibited in vivo via LPS challenge—see FIG. 37. Female apoE−/− mice, after 1 week on WTD, were injected intraperitoneally with PBS or InflaMab (100 μg or 200 μg) administrated on day 10 and day 14. After 2 weeks of diet and a 1-week treatment mice were challenged intravenously with LPS (50 μg/kg) and (a) IL-1β and (b) TNF-α were measured by ELISA.

B1: InflaMab: 210 kDa bispecific mouse antibody to IL-1R1 and NLRP3; light chain SEQ ID NO: 57, heavy chain with scFv SEQ ID NO: 59 (protein)
light: MVSSAQFLGLLLLCFQGTRCDIVMTQSPATLSVTPGDRVSLSCRASQSISDYLSWYQQRSHESPRLIIKYASQSISGIPSRFSGSGSGSDFTLSINSVEPEDVGVYYCQHGHSFPLTFGSGTKLELKRADAAPTVSIFPPSSEQLTSGGASVVCFLNNFYPKDINVKWKIDGSERQNGVLNSWTDQDSKDSTYSMSSTLTLTKDEYERHNSYTCEATHKTSTSPIVKSFNRNEC
heavy: MGWTLVFLFLLSVTAGVHSQIQLVQSGPELRKPGETVRISCKASGYPFTTAGLQWVQKMSGKGLKWIGWMNTQSEVPKYAEEFKGRIAFSLETAASTAYLQINNLKTEDTATYFCAKSVYFNWRYFDVWGAGTTVTVSSAKTTAPSVYPLAPVCGDTTGSSVTLGCLVKGYFPEPVTLTWNSGSLSSGVHTFPAVLQSDLYTLSSSVTVTSSTWPSQSITCNVAHPASSTKVDKKIEPRGPTIKPCPPCKCPAPNLLGGPSVFIFPPKIKDVLMISLSPIVTCVVVDVSEDDPDVQISWFVNNVEVHTAQTQTHREDYNSTLRVVSALPIQHQDWMSGKEFKCKVNNKDLPAPIERTISKPKGSVRAPQVYVLPPPEEEMTKKQVTLTCMVTDFMPEDIYVEWTNNGKTELNYKNTEPVLDSDGSYFMYSKLRVEKKNWVERNSYSCSVVHEGLHNHHTTKSFSRTPGKGSAGGSGGDSEVQLVESGGGLVKPGGSLKLSCAASGFTFSDYYMYWVRQTPEKRLEWVATISDGGTYTYYPDSVKGRFTISRDNAKNNLYLQMNSLKSEDTAMYYCARGWVSTMVKLLSSFPYWGQGTLVTVSAGGGGSGGGGSGGGGSQAVVTQESALTTSPGETVTLTCRSSTGAVTTSNYANWVQEKPDHLFTGLIGGTNNRAPGVPARFSGSLIGDKAALTITGAQTEDEAIYFCALWYSNYWVFGGGTKLTVLGQPK
IL-1β release [1]: prevents
caspase-1 activation ([2]; differentiated THP1, LPS 1 ug/ml 3 h, Ab 1 μg/ml 30 min, ATP 5 mM 1 h, FAM-FLICA, FIG. 34): prevents
caspase-1 activation in THP1 cells that have internalized the bi-specific Ab as compared to cells that did not ([2]; pHrodo red labelled Ab 1 ug/ml 30 min, LPS then ATP, confocal, FIG. 35B): significant reduction
internalization of the Ab [3]: shows the internalization
secretion of TNFalpha ([4]; same cells, specificity): no effect
IL-1beta secretion ([4]; LPS 50 ng/ml, Inflamab 30 min, Alum 50 μg/ml 1 h, ELISA): dose-dependently inhibit
IL-1beta secretion in vivo ([5]; female apoE−/− mice on Western-type diet, 100 μg or 200 μg i.p. day 10 and 14): specifically inhibit
secretion of TNFalpha in vivo ([5]; female apoE−/− mice, 100 μg or 200 μg i.p., specificity): no effect
